Measurements from the supplement of paper PMC10567573.

B1: FBXO3 (parent)
chain: AGGFQQRQGLKYCLPLTFCIHTGL

Variants of: B1
Test: protein stability index of a GFP-peptide fusion (GPS, HEK-293T) (PSI 1-6); higher = more stable
Conditions: c terminus: a fixed tail appended
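Note: lentivirally expressed fusions sorted by FACS into six bins by GFP to DsRed ratio, PSI derived from sequencing read proportions per bin multiplied by bin number.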

Row | Variant | protein stability index
1 | AGGFQQRQGLKYCLPLTFCISTGL [H21S] | 2.72
2 | AGGFQQRQGLKYCLPLTFCIVTGL [H21V] | 3.83
3 | AGGFQQRQGLKYCLPLTFCIKTGL [H21K] | 2.03
4 | AGGFQQRQGLKYCLPLTFCIYTGL [H21Y] | 3.41
5 | AGGFQQRQGLKYCLPLTFCICTGL [H21C] | 3.66
6 | AGGFQQRQGLKYCLPLTFCIMTGL [H21M] | 1.72
7 | AGGFQQRQGLKYCLPLTFCITTGL [H21T] | 2.59
8 | AGGFQQRQGLKYCLPLTFCIWTGL [H21W] | 2.15
9 | AGGFQQRQGLKYCLPLTFCIPTGL [H21P] | 2.76
10 | AGGFQQRQGLKYCLPLTFCIETGL [H21E] | 1.98
11 | AGGFQQRQGLKYCLPLTFCIDTGL [H21D] | 2.99
12 | AGGFQQRQGLKYCLPLTFCIQTGL [H21Q] | 2.73
13 | AGGFQQRQGLKYCLPLTFCIFTGL [H21F] | 3.32
14 | AGGFQQRQGLKYCLPLTFCIITGL [H21I] | 2.36
15 | AGGFQQRQGLKYCLPLTFCIGTGL [H21G] | 2.73
16 | AGGFQQRQGLKYCLPLTFCILTGL [H21L] | 2.46
17 | AGGFQQRQGLKYCLPLTMCIHTGL [F18M] | 2.41
18 | AGGFQQRQGLKYCLPLTNCIHTGL [F18N] | 1.95
19 | AGGFQQRQGLKYCLPLTPCIHTGL [F18P] | 1.68
20 | AGGFQQRQGLKYCLPLTTCIHTGL [F18T] | 1.19
21 | AGGFQQRQGLKYCLPLTRCIHTGL [F18R] | 1.05
22 | AGGFQQRQGLKYCLPLTVCIHTGL [F18V] | 4.06
23 | AGGFQQRQGLKYCLPLTSCIHTGL [F18S] | 1.4
24 | AGGFQQRQGLKYCLPLTQCIHTGL [F18Q] | 2.47

Row | Variant | protein stability index
25 | AGGFQQRQGLKYCLPLTYCIHTGL [F18Y] | 2.71
26 | AGGFQQRQGLKYCLPLTFCIHTQL [G23Q] | 3.06
27 | AGGFQQRQGLKYCLPLTFCIHTPL [G23P] | 3.02
28 | AGGFQQRQGLKYCLPLTFCIHTVL [G23V] | 3.1
29 | AGGFQQRQGLKYCLPLTFCIHTFL [G23F] | 3.1
30 | AGGFQQRQGLKYCLPLTFCIHTEL [G23E] | 2.4
31 | AGGFQQRQGLKYCLPLTFCIHTML [G23M] | 2.31
32 | AGGFQQRQGLKYCLPLTFCIHTKL [G23K] | 2.81
33 | AGGFQQRQGLKYCLPLTFCIHTNL [G23N] | 2.97
34 | AGGFQQRQGLKYCLPLTFCIHTRL [G23R] | 3.05
35 | AGGFQQRQGLKYCLPLTFCIHTLL [G23L] | 2.67
36 | AGGFQQRQGLKYCLPLTFCIHTAL [G23A] | 3.52
37 | AGGFQQRQGLKYCLPLTFCIHTWL [G23W] | 2.97
38 | AGGFQQRQGLKYCLPLTFCIHTCL [G23C] | 3.16
39 | AGGFQQRQGLKYCLPLTFCIHTDL [G23D] | 2.58
40 | AGGFQQRQGLKYCLPLTFCIHTIL [G23I] | 1.85
41 | AGGFQQRQGLKYCLPLTFCIHTGW [L24W] | 2.7
42 | AGGFQQRQGLKYCLPLTFCIHTGE [L24E] | 3.16
43 | AGGFQQRQGLKYCLPLTFCIHTGC [L24C] | 2.15
44 | AGGFQQRQGLKYCLPLTFCIHTGD [L24D] | 2.42
45 | AGGFQQRQGLKYCLPLTFCIHTGV [L24V] | 3.48
46 | AGGFQQRQGLKYCLPLTFCIHTGQ [L24Q] | 1.96
47 | AGGFQQRQGLKYCLPLTFCIHTGK [L24K] | 1.66
48 | AGGFQQRQGLKYCLPLTFCIHTGP [L24P] | 1.88

Row | Variant | protein stability index
49 | AGGFQQRQGLKYCLPLTFCIHTGM [L24M] | 2.99
50 | AGGFQQRQGLKYCLPLTFCIHTGG [L24G] | 2.74
51 | AGGFQQRQGLKYCLPLTFCIHTGR [L24R] | 2.73
52 | AGGFQQRQGLKYCLPLTFCIHTGH [L24H] | 2.7
53 | AGGFQQRQGLKYCLPLTFCIHTGI [L24I] | 2.69
54 | AGGFQQRQGLKYCLPLTFCIHTGN [L24N] | 2.3
55 | AGGFQQRQGLKYCLPLTFCIHTGY [L24Y] | 2.45
56 | AGGFQQRQGLKYCLPLTFCIHTGT [L24T] | 2.42
57 | AGGFQQRQGLKYCLPLTFCIHTGS [L24S] | 2.14
58 | AGGFQQRQGLKYCLPLTFCIHTGA [L24A] | 2.48
59 | AGGFQQRQGLKYCLPLTFCIHTGF [L24F] | 2.33
60 | AGGFQQRQGLKYCLPLTFIIHTGL [C19I] | 1.6
61 | AGGFQQRQGLKYCLPLTFGIHTGL [C19G] | 1.97
62 | AGGFQQRQGLKYCLPLTFHIHTGL [C19H] | 2.66
63 | AGGFQQRQGLKYCLPLTFSIHTGL [C19S] | 2.64
64 | AGGFQQRQGLKYCLPLTFYIHTGL [C19Y] | 2.67
65 | AGGFQQRQGLKYCLPLTFRIHTGL [C19R] | 2.8
66 | AGGFQQRQGLKYCLPLTFAIHTGL [C19A] | 3.9
67 | AGGFQQRQGLKYCLPLTFDIHTGL [C19D] | 1.46
68 | AGGFQQRQGLKYCLPLTFFIHTGL [C19F] | 2.44
69 | AGGFQQRQGLKYCLPLTFLIHTGL [C19L] | 2.86
70 | AGGFQQRQGLKYCLPLTFKIHTGL [C19K] | 2.21
71 | AGGFQQRQGLKYCLPLTFVIHTGL [C19V] | 2.83
72 | AGGFQQRQGLKYCLPLTFPIHTGL [C19P] | 1.87

Row | Variant | protein stability index
73 | AGGFQQRQGLKYCLPLTFMIHTGL [C19M] | 2.71
74 | AGGFQQRQGLKYCLPLTFQIHTGL [C19Q] | 1.74
75 | AGGFQQRQGLKYCLPLTFNIHTGL [C19N] | 2.04
76 | AGGFQQRQGLKYCLPLTFTIHTGL [C19T] | 3.13
77 | AGGFQQRQGLKYCLPLTFEIHTGL [C19E] | 3.11
78 | AGGFQQRQGLKYCLPLTFCDHTGL [I20D] | 2.93
79 | AGGFQQRQGLKYCLPLTFCTHTGL [I20T] | 2.56
80 | AGGFQQRQGLKYCLPLTFCRHTGL [I20R] | 3.02
81 | AGGFQQRQGLKYCLPLTFCGHTGL [I20G] | 2.69
82 | AGGFQQRQGLKYCLPLTFCFHTGL [I20F] | 2.34
83 | AGGFQQRQGLKYCLPLTFCSHTGL [I20S] | 2.43
84 | AGGFQQRQGLKYCLPLTFCWHTGL [I20W] | 1.25
85 | AGGFQQRQGLKYCLPLTFCEHTGL [I20E] | 2.95
86 | AGGFQQRQGLKYCLPLTFCPHTGL [I20P] | 2.11
87 | AGGFQQRQGLKYCLPLTFCQHTGL [I20Q] | 2.62
88 | AGGFQQRQGLKYCLPLTFCAHTGL [I20A] | 1.89
89 | AGGFQQRQGLKYCLPLTFCNHTGL [I20N] | 2.33
90 | AGGFQQRQGLKYCLPLTFCKHTGL [I20K] | 1.6
91 | AGGFQQRQGLKYCLPLTFCLHTGL [I20L] | 3.23
92 | AGGFQQRQGLKYCLPLTFCVHTGL [I20V] | 2.78
93 | AGGFQQRQGLKYCLPLTFCCHTGL [I20C] | 3.77
94 | AGGFQQRQGLKYCLPLTFCMHTGL [I20M] | 2.73
